Test results: patent US20140072577A1 (AstraZeneca / MedImmune, published 2014)

Target: T1, BSA (bovine, UniProt P02769)
T1 construct: also called bovine serum albumin
Assay: ELISA, BSA as control antigen; detection with anti-human IgG HRP

T1 sequence (P02769 25-607 limits assumed): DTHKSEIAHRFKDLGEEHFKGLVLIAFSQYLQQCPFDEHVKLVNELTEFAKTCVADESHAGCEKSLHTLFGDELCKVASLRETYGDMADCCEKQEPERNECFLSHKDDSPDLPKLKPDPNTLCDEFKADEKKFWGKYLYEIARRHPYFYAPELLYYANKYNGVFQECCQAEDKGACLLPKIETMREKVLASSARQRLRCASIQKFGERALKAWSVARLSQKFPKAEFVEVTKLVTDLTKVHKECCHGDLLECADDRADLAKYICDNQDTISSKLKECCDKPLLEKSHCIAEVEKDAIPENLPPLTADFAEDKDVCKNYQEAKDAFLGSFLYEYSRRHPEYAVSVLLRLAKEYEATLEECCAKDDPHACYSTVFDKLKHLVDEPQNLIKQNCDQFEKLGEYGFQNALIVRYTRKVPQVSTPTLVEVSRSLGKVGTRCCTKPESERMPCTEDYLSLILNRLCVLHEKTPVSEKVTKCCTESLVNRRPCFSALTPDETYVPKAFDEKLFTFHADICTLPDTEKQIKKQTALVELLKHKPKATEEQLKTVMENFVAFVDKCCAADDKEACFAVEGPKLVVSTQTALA

B1: LC10 YTE (antibody corresponding to mAb LC10 containing an Fc variant (antibody, V domains shown)
VH: EVQLVESGGGLVQPGGSLRLSCAASGFTFSSHDMHWVRQATGKGLEWVSGIGTAGDTYYPDSVKGRFTISRENAKNSLYLQMNSLRAGDTAVYYCARDRYSPTGHYYGMDVWGQGTTVTVSS
VL: DIQMTQSPSTLSASVGDRVTITCRASQSISSWLAWYQQKPGKAPKLLIYKASSLESGVPSRFSGSGSGTEFTLTISSLQPDDFATYYCKQYADYWTFGQGTKVEIKR
notes: also called LC10-IgG1-YTE; MEDI4893
- binding result: no binding
